For one molecule, Kd results are on record in patent publication US20210388112A1.

The assay deals with T1, peptide containing GA-pyridine (Biotin-Gly-Ala-Gly-(GA-pyridine)-Gly-Ala-CONH2).
T1 chain: GAGXGA
The assay can be described thus: SPR (Biacore T200), peptide immobilised on sensor chip SA, 25 C.

B1: cyclic Y9-scFv cyclized by sortase (scFv)
scFv: GGGSHMAQVKLQQSGPSLVKPSQTLSLTCSVTGDSITSGYWNWIRKFPGNKFEYLGYISYSGRTYYNPSLKSRISITRDTSKNQYYLQLNSVTTEDTATYYCSRPYYRYDYAIDYWGQGTTVTVSSGGGGSGGGGSGGGGSDIELTQSPAIMSASLGEQVTMTCTASSSVSSSYLHWYQQKPGSSPKLWIYSTSNLASGVPARFSSSGSGTSYSLTISRMEAEDAATYYCQQSWKAPYTFGGGTKLEIKRAAAGTHHHHHHLPET
modifications: not checked
In turn, B1 yielded a Kd of 16.1 nM.
